Assay results published in patent US20180057596A1 (AstraZeneca / MedImmune, published 2018).
Where a chain is given by its changes, count along the chain named.

T1: human IL4Rα/Fc (R and D Systems 604-4R) (human, UniProt P24394 26-231, limits assumed, biotin labelled in the assay of Example 5)
T1 construct: bought protein; also called IL-4Rα/Fc (R&D systems Cat. No. 604-4R-050); not shown: Fc part of the bought fusion
T1 sequence (looked up): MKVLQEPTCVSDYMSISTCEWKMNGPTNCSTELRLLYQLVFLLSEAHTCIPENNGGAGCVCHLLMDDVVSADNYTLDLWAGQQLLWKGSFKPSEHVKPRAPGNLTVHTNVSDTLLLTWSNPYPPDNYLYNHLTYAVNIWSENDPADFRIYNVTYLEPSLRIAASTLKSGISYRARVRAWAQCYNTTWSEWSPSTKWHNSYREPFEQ

B1: Antibody 3 scFv (scFv, V domains shown)
VH: QVQLVQSGAEVKKPGASVKVSCKASGYAFTSYYMHWARQAPGQGLEWMGIINPSGGSTSYAQKFQGRVTMTRDTSTSTVYMELSSLRSEDTAVYYCARGKLLKNPWGKGTLVTVSS
VL: QSVLTQPPSVSAAPGQKVTISCSGGSSNIGNSYVSWYQQLPGTAPKLLIYDNNKRPSGIPDRFSGSKSGTSATLAITGLQTGDEADYYCGTWFGTPASNYVFGTGTKLTVL
notes: tested as purified scFv
B2: Antibody 20 scFv (scFv, V domains shown)
VH: B1 VH with L101Y, L102W, K103M, N104Y, P105D
VL: B1 VL with F93D, G94T, T95S, P96T, A97V, S98W, N99E, Y100W, V101P
notes: tested as purified scFv
B3: Antibody 22 scFv (scFv, V domains shown)
VH: B1 VH with L101Y, L102W, K103M, N104Y, P105D
VL: QPVLTQPPSVSAAPGQKVTISCSGGSSNIGNSYVSWYQQLPGTAPKLLIYDNNKRPSGIPDRFSGSKSGTSATLAITGLQTGDEADYFCGTWDTSTVWEWPFGTGTKLTVL
notes: tested as purified scFv
B4: Antibody 36 scFv (scFv, V domains shown)
VH: B1 VH with T58A, L101Y, L102W, K103M, N104Y, P105D
VL: B3 VL with P2S, F88Y, T94S
notes: tested as purified scFv
B5: Antibody 9 scFv (scFv, V domains shown)
VH: B1 VH with L101W, L102W, K103L, N104Y, P105N
VL: B3 VL with P2S, F88Y, V97T, W98M, E99Y, W100P, P101L
notes: tested as purified scFv
B6: Antibody 17 scFv (scFv, V domains shown)
VH: B1 VH with L101W, L102W, K103W, N104Q, P105H
VL: B3 VL with P2S, F88Y, T96P, W98D, E99R, W100P, P101I
notes: tested as purified scFv
B7: Antibody 2 scFv (scFv, V domains shown)
VH: B1 VH with L101W, L102W, K103L, N104Y, P105N
VL: B3 VL with P2S, F88Y, T96Q, V97P, W98P, E99N, W100P, P101L
notes: tested as purified scFv
B8: Antibody 10 scFv (scFv, V domains shown)
VH: B1 VH with L101W, L102W, K103L, N104Y, P105D
VL: B3 VL with P2S, F88Y, W98L, E99T, W100P, P101I
notes: tested as purified scFv
B9: Antibody 25 scFv (scFv, V domains shown)
VH: B1 VH with S54R, T58A, T69S, L101Y, L102W, K103M, N104Y, P105D
VL: B3 VL with P2S, S71T, F88Y, D93V
notes: tested as purified scFv
B10: Antibody 29 scFv (scFv, V domains shown)
VH: B1 VH with L101Y, L102W, K103M, N104Y, P105D, L111R
VL: B3 VL with P2S, F88Y, T96P
notes: tested as purified scFv
B11: Antibody 19 scFv (scFv, V domains shown)
VH: B1 VH with L101W, L102W, K103W, N104Q, P105H
VL: B3 VL with P2S, F88Y, V97T, W98Y, E99H, W100P, P101I
notes: tested as purified scFv
B12: Antibody 13 scFv (scFv, V domains shown)
VH: B1 VH with L101W, L102W, K103L, N104Y, P105D
VL: B3 VL with P2S, F88Y, V97T, W98L, E99Q, W100P, P101L
notes: tested as purified scFv
B13: Antibody 12 scFv (scFv, V domains shown)
VH: B1 VH with L101W, L102W, K103F, N104Y, P105D
VL: B3 VL with P2S, F88Y, V97T, W98M, E99Y, W100P, P101L
notes: tested as purified scFv
B14: Antibody 39 scFv (scFv, V domains shown)
VH: B1 VH with S54R, L101Y, L102W, K103M, N104Y, P105D
VL: B3 VL with P2S, F88Y, V97A
notes: tested as purified scFv
B15: Antibody 34 scFv (scFv, V domains shown)
VH: B1 VH with T69S, L101Y, L102W, K103M, N104Y, P105D
VL: B3 VL with P2S
notes: tested as purified scFv
B16: Antibody 26 scFv (scFv, V domains shown)
VH: B1 VH with L101Y, L102W, K103M, N104Y, P105D
VL: B3 VL with P2S
notes: tested as purified scFv
B17: Antibody 4 scFv (scFv, V domains shown)
VH: B1 VH with L101W, L102W, K103L, N104Y, P105N
VL: B3 VL with P2S, F88Y, T96S, V97P, W98P, E99Q, W100P, P101I
notes: tested as purified scFv
B18: Antibody 15 scFv (scFv, V domains shown)
VH: B1 VH with L101W, L102W, K103L, N104Y, P105N
VL: B3 VL with P2S, F88Y, V97H, W98R, E99H, W100P, P101L
notes: tested as purified scFv
B19: Antibody 16 scFv (scFv, V domains shown)
VH: B1 VH with L101W, L102W, K103L, N104Y, P105N
VL: B3 VL with P2S, F88Y, V97T, W98Y, E99H, W100P, P101I
notes: tested as purified scFv
B20: Antibody 18 scFv (scFv, V domains shown)
VH: B1 VH with L101W, L102W, K103W, N104Q, P105H
VL: B3 VL with P2S, F88Y, V97T, W98P, E99M, W100P, P101V
notes: tested as purified scFv
B21: Antibody 21 scFv (scFv, V domains shown)
VH: B1 VH with T58A, L101Y, L102W, K103M, N104Y, P105D
VL: B3 VL with P2S, D86V
notes: tested as purified scFv
B22: Antibody 23 scFv (scFv, V domains shown)
VH: B1 VH with K12R, L101Y, L102W, K103M, N104Y, P105D
VL: B3 VL with P2S, S32N, S57P, F88Y
notes: tested as purified scFv
B23: Antibody 24PGL scFv (scFv, V domains shown)
VH: B1 VH with A37V, S54R, L101Y, L102W, K103M, N104Y, P105D
VL: B3 VL with P2S, A75G
notes: tested as purified scFv
B24: Antibody 14 scFv (scFv, V domains shown)
VH: B1 VH with L101W, L102W, K103L, N104Y, P105N
VL: B3 VL with P2S, F88Y, T96P, V97P, W98T, E99K, W100P, P101L
notes: tested as purified scFv
B25: Antibody 5 scFv (scFv, V domains shown)
VH: B1 VH with L101W, L102W, K103L, N104Y, P105D
VL: B3 VL with P2S, F88Y, T96S, V97P, W98P, E99Q, W100P, P101I
notes: tested as purified scFv
B26: Antibody 32 scFv (scFv, V domains shown)
VH: B1 VH with L101Y, L102W, K103M, N104Y, P105D
VL: B3 VL with P2S, V97A
notes: tested as purified scFv
B27: Antibody 24 scFv (scFv, V domains shown)
VH: B1 VH with S54R, L101Y, L102W, K103M, N104Y, P105D
VL: B3 VL with P2S
notes: tested as purified scFv
B28: Antibody 8 scFv (scFv, V domains shown)
VH: B1 VH with L101W, L102W, K103W, N104Q, P105Y
VL: B3 VL with P2S, F88Y, V97T, W98Y, E99H, W100P, P101I
notes: tested as purified scFv
B29: Antibody 7 scFv (scFv, V domains shown)
VH: B1 VH with L101W, L102W, K103W, N104Q, P105Y
VL: B3 VL with P2S, F88Y, T96S, V97P, W98P, E99Q, W100P, P101I
notes: tested as purified scFv
B30: Antibody 6 scFv (scFv, V domains shown)
VH: B1 VH with L101Y, L102W, K103M, N104Y, P105D
VL: B3 VL with P2S, F88Y, V97T, W98Y, E99H, W100P, P101I
notes: tested as purified scFv
B31: Antibody 11 scFv (scFv, V domains shown)
VH: B1 VH with L101W, L102W, K103F, N104Y, P105D
VL: B3 VL with P2S, F88Y, T96P, V97S, W98M, E99I, W100P, P101L
notes: tested as purified scFv

Assays:
[1] = target: T1, human IL4Rα/Fc (R and D Systems 604-4R); test: HTRF receptor-ligand assay, purified scFv against biotinylated human IL4
[2] = target: T2, cynomolgus IL4Rα/Fc HIS6 (HEK expressed) (cynomolgus monkey); test: HTRF receptor-ligand assay, purified scFv against biotinylated cynomolgus IL4
T2 construct: also called Cyno IL4R; cynomolgus IL-4Rα HIS Fc (in house HEK-EBNA derived); not shown: HIS6 tag
T2 sequence (chain, as listed by the source): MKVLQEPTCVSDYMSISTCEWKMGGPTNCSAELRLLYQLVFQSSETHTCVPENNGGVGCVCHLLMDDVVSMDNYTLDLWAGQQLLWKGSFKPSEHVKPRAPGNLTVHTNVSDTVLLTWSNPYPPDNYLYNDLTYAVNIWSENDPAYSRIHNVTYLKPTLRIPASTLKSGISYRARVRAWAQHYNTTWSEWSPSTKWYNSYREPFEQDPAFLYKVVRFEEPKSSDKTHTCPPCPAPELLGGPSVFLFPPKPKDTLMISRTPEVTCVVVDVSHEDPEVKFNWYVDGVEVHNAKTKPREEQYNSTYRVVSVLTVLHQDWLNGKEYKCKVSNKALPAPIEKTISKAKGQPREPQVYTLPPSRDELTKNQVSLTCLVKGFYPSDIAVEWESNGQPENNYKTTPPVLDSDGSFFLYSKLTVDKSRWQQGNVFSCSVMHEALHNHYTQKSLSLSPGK

| Binder | Ki [1] [nM] | Ki [2] [nM] |
| --- | --- | --- |
| B1 | 0.5 | 48 |
| B2 | 0.7 | 4.2 |
| B3 | 0.3 | 2.6 |
| B4 | 0.1 | 5.3 |
| B5 | 0.1 | 12.9 |
| B6 | 0.9 | 43.5 |
| B7 | 0.6 | 4.3 |
| B8 | 0.5 | 19.6 |
| B9 | 0.039 | 1.3 |
| B10 | 0.061 | 2.4 |
| B11 | 0.8 | 18.5 |
| B12 | 0.3 | 22.2 |
| B13 | 0.3 | 7.2 |
| B14 | 0.027 | 1.6 |
| B15 | 0.056 | 1.2 |
| B16 | 0.1 | 1.2 |

| Binder | Ki [1] [nM] | Ki [2] [nM] |
| --- | --- | --- |
| B17 | 0.8 | 6.8 |
| B18 | 1 | 32.3 |
| B19 | 0.4 | 8.7 |
| B20 | 0.7 | 56.5 |
| B21 | 0.031 | 1 |
| B22 | 0.2 | 4.8 |
| B23 | 0.065 | 0.7 |
| B24 | 0.6 | 27.7 |
| B25 | 0.6 | 3.8 |
| B26 | 0.075 | 1.3 |
| B27 | 0.049 | 0.8 |
| B28 | 0.4 | 9.4 |
| B29 | 1.1 | 16.5 |
| B30 | 0.3 | 3.5 |
| B31 | 0.7 | 26.1 |
